Reference: publication PMC2910040

Columns and labels:
[1] = biological target: T1, BLMHM (BLM helicase module) (Homo sapiens, UniProt P54132 642-1290); assay: fluorescence titration
[2] = biological target: T1, BLMHM (BLM helicase module); assay: stopped-flow mdADP fluorescence amplitude titration
[3] = biological target: T1, BLMHM (BLM helicase module); assay: as above; remark: listed apart in the source
[4] = biological target: T1, BLMHM (BLM helicase module); assay: as above; remark: listed apart in the source
[5] = biological target: T1, BLMHM (BLM helicase module); assay: HEX fluorescence change

T1 sequence (P54132 642-1290): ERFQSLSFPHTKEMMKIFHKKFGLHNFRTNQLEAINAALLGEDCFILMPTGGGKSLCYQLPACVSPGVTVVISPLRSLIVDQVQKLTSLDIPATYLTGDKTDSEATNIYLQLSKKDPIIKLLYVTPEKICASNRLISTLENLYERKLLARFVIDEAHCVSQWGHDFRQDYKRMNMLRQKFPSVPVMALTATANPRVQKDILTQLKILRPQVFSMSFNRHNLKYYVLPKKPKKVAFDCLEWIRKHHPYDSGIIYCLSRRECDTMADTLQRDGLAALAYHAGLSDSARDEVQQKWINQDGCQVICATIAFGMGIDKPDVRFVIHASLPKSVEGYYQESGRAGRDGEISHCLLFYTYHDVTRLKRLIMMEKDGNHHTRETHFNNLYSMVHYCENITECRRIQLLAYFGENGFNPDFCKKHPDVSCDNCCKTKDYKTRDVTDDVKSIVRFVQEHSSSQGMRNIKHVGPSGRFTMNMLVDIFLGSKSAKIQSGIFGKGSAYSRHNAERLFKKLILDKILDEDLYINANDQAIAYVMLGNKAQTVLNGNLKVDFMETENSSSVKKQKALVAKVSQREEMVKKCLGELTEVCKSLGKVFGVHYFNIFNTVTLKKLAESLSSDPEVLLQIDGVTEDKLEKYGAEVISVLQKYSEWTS

B1: DNA_2 (5'-HEX-DNA_54mer) (ssDNA)
DNA: CGTTGCGCAATTAAGCTCTAAGCCATCCGCAAAAATGACCTCTTATCAAAAGGA
B1 was tested, and the Kd [1] was 100 ± 20 nM.

TTTTTTTTTTTTTTTTTT (ssDNA) [dT18] was tested, and the Kd [2] was less than 100 nM.

TTTTTTTTTTTTTTTTTTTTTTTTTTTTTTTTTTTT (ssDNA) [dT36] showed a Kd [3] of less than 100 nM.

B2: dT54 (ssDNA)
DNA: TTTTTTTTTTTTTTTTTTTTTTTTTTTTTTTTTTTTTTTTTTTTTTTTTTTTTT
B2 was tested, and the Kd [4] was less than 100 nM.

TTTTTTTTTTTTTTTTTTTT (ssDNA) [5'-HEX-dT20]: binds [5].
